From patent publication US20150353909

Key:
[1] = tested on: purified recombinant linear UB trimers
[2] = biological target: K48-tetraubiquitin chains (UniProt P0CG48)
[3] = biological target: K63-tetraubiquitin chains (UniProt P0CG48)
[4] = tested on: purified recombinant linear UB tetramers
[5] = tested on: purified recombinant linear UB dimers
HA3-RUB-GST = HA3-RUB-GST (UniProt Q9SHE7)
HA3-SUMO-GST = HA3-SUMO-GST (UniProt P55852)
[6] = tested on: HA3-UBQ-GST [GST: P08515]

Measured: in vitro deubiquitylation activity

Sequence of His-tagged OTU12 (Q9SGA5 whole entry): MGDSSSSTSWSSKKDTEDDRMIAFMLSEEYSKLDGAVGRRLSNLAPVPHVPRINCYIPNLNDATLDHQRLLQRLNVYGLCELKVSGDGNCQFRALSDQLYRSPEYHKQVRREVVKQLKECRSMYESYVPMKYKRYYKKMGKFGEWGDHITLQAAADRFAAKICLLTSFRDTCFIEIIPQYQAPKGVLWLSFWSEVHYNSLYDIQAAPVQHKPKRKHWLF
Sequence of His-tagged OTU11a (Q0V869 whole entry): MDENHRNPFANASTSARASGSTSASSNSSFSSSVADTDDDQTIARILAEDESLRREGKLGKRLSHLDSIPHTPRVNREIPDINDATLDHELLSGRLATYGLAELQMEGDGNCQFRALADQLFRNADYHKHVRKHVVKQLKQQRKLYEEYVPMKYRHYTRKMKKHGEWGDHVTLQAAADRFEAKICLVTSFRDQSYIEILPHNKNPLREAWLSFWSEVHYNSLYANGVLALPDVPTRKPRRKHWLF
Sequence of K63-tetraubiquitin chains (P0CG48 whole entry, looked up): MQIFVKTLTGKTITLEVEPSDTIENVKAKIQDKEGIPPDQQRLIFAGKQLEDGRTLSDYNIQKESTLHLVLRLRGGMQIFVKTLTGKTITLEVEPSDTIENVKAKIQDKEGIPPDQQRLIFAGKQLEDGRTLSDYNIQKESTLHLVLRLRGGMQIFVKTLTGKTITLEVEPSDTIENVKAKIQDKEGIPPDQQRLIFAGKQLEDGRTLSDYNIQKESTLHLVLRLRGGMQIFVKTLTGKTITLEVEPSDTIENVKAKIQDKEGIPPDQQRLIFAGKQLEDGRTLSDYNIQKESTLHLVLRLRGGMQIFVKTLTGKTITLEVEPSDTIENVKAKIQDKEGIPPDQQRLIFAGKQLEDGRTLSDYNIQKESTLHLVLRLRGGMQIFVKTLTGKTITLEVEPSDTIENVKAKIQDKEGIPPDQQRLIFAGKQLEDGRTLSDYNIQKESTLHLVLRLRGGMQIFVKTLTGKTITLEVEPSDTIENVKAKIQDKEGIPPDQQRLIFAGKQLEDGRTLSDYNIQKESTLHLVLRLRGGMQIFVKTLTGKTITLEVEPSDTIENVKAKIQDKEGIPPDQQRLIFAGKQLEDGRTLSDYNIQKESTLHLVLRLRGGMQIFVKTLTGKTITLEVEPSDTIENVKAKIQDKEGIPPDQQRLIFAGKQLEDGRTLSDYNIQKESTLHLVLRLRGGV
Sequence of K48-tetraubiquitin chains (P0CG48 whole entry, looked up): as above

His-tagged OTLD1a
-: [1] | [2] | [3] | [4] | [5] | HA3-RUB-GST | HA3-SUMO-GST | [6]

His-tagged OTU5b
-: [1] | [2] | [3] | [4] | [5] | HA3-RUB-GST | HA3-SUMO-GST | [6]

His-tagged OTU11a
-: [1] | [2] | [3] | [4] | [5] | HA3-RUB-GST | HA3-SUMO-GST | [6]

His-tagged OTU12
-: [1] | [2] | [3] | [4] | [5] | HA3-RUB-GST | HA3-SUMO-GST | [6]

OTU4d
-: [1] | [2] | [3] | [4] | [5] | HA3-RUB-GST | HA3-SUMO-GST | [6]
